Experimental data published in US7083949.

Tests used:
Assay in all cases: cell-based or functional assay
human IL-6 (human) = human IL-6 (human) (UniProt P05231)
[1] = target: recombinant human IL-1 (human)
human IL-4 (human) = human IL-4 (human) (UniProt P05112)
human IL-13 (human) = human IL-13 (human) (UniProt P35225)
[2] = target: recombinant human IL-13 (E. coli) (human) (UniProt P35225)
recombinant human IL-13 (E. coli) (human), sequence (P35225 35-146 limits assumed): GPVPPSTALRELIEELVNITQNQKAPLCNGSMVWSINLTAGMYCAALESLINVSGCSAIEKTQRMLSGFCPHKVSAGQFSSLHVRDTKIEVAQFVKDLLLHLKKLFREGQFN

human IL-4 (human), sequence (P05112 25-153 limits assumed): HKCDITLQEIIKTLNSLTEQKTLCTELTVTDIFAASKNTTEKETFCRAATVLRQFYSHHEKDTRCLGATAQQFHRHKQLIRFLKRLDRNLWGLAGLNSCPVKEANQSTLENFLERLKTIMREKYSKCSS
human IL-13 (human), sequence (P35225 35-146 limits assumed): as the sequence (P35225 35-146 limits assumed) above
human IL-6 (human), sequence (P05231 30-212 limits assumed): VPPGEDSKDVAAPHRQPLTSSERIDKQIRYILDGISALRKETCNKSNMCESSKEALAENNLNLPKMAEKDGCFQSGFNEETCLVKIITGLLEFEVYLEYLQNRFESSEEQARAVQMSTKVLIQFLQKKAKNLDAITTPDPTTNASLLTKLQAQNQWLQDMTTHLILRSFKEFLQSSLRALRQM

inhibition of IL-6-dependent proliferation of XG-1 cells (MTT) (fold molar excess over IL-6) (human IL-6 (human)) | TF1 cell proliferation (MTS); IL-4 concentration at which growth is inhibited by 50% with 10 nM Trap (human IL-4 (human)) | TF1 cell proliferation (MTS); highest IL-4 concentration blocked by 10 nM Trap (human IL-4 (human)) | TF1 cell proliferation (MTS); IL-13 concentration at which growth is inhibited by 50% with 10 nM Trap (human IL-13 (human)) | TF1 cell proliferation (MTS); highest IL-13 concentration blocked by 10 nM Trap (human IL-13 (human)) | Substance | further results
> 1000 | – | – | – | – | gp130-Fc-CNTFRα-Fc ligand Trap (Fc fusion) | –
– | – | – | – | – | human IL-1 Trap (Fc fusion) | serum IL-6 in mice after injection of human IL-1 (in vivo) (fold molar excess) [1]: 150
– | 3 to 4 nM | 1 nM | 4 to 5 nM | 2 nM | IL-13Rα1.IL-4Rα.Fc (Fc fusion) | –
> 1000 | – | – | – | – | gp130-Fc homodimer (Fc fusion) | –
– | 3 to 4 nM | 1 nM | 4 to 5 nM | 2 nM | IL-4Rα.IL-13Rα1.Fc (Fc fusion) | –
– | – | – | – | – | IL-4/IL-13 Trap 1132 (Fc fusion) | IC50, TF1 cell proliferation with 15 pM IL-13 (E. coli; Preprotech), MTS [2]: 64 pM
